The data set has as its system MS2 coat protein. The experiment in a line: apparent KD of MS2 coat protein; designed switch direction (-1 OFF switch, 1 ON switch): -1; higher = weaker reporter binding. The method, boiled down:
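Designed RNA switches with common flanks were made on Illumina chips by stalled E. coli RNA polymerase. Titration with SNAP-549-labelled MS2 coat protein doubled from 0.7 or 1.5 nM up to 3 µM. Apparent KD is each design's median over clusters after curve-fitting normalised fluorescence.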

Where [1] appears, read: Eterna round: R95, input ligand: FMN 200 uM.
Setting [2] is: Eterna round: R95, input ligand: microRNA oligo, concentration not stated.
Where [3] appears, read: Eterna round: R95, input ligand: none.
[4] abbreviates: input ligand: microRNA oligo, concentration not stated.

As for “UUAACAUGCUGGUGAUCAUACAUGAGGAUCACCCAUGUAACAAGCUUUUUGUUCGUCUUAUAAGAUUACUAGUAUGU [Stov1/10-B1] (Eterna round: R97, puzzle: Sensor, turn-off variant 1)”, the “apparent KD of MS2 coat protein” value runs as follows: (input ligand: FMN 200 uM) 39.4 nM; (input ligand: none) 59.4 nM.
Take “UUUAAUUUUUUUUUUUUACAAGCUUUUUGCUCGUCUUAUACAUGAGGAUCACCCAUGUGGGUGAGAAAUGAAUUAUC [JMF 93] (puzzle: Sensor v3, turn-off variant 2)”: the “apparent KD of MS2 coat protein” value runs as follows: under setting [1], 59.9 nM; under setting [2], 10.2 nM; under setting [3], 76.8 nM.
On to “GACCUAUAGGUAGGAUAUCAUUGCGAUUAGCUAUGAGAAGGACCACAUGAGGAUCACCCAUGUCCUCCAAUUAACCGAAAGGUC [Fiskers ExNg1 - 3] (Eterna round: R96, puzzle: Exclusion NG 1)”, for which the “apparent KD of MS2 coat protein” value is 44.9 nM (input ligand: FMN 200 uM), 21.9 nM under setting [4] and 30.1 nM (input ligand: none).
With “ACUAGAUGAGGAUAUGCAUGUUUUCAUGUUCUUCUAGAUUAACAUGAGGAUCACCCAUGUAGAAGGCGUCUUUA [Exclusion 2 - 32] (puzzle: Exclusion 2)”, the “apparent KD of MS2 coat protein” value under setting [2] was found to be 18.9 nM.
“CCGUCACAUGAGGAUCACCCAUGUCAGGAUAUCUAUCAUAGCAUCGAAAGAUGCGGGUAGAGAAGGGACUAUCC [ChP Ext 10-04-2015 #7] (puzzle: Exclusion 1)”: the “apparent KD of MS2 coat protein” value under setting [2] is 20.3 nM.
For “UUUAAUUUUUUUUUUUUACAAGCUUUUUGCUCGUCUUAUACAUGAGGAUCACCCAUGUAAAUGGGAAAUGAAUUAUC [JMF 95] (puzzle: Sensor v3, turn-off variant 2)”, the “apparent KD of MS2 coat protein” value came out at 322 nM under setting [1], 447 nM under setting [2] and 188 nM under setting [3].
Taken in the same sequence, the figures for “GUAUGUUAUGAGGAUAUCGGUGAACAUACACAUCGAGAAGGCAUGACAUGAGGAUCACCCAUGUCAAGGAUGAG [Exclusion 6 - B - 18:c] (puzzle: Exclusion 6)” were 71.9 nM, 17.7 nM and 22.7 nM.
As to “UUUAUGUCAGGAUAUACAUGAGGAUCACCCAUGUAUAUCUUAAGGUAUACAUGGGAAUGUAGAAGGGACCUCCU [Omei Ex3 Pseudoloop 7] (Eterna round: R97, puzzle: Exclusion 3)”, the “apparent KD of MS2 coat protein” value (input ligand: FMN 200 uM) amounted to 40.7 nM and the “apparent KD of MS2 coat protein” value (input ligand: none) stood at 41.3 nM.
For “AAAAUAAAAAUAAACAAGCACAUGAGGAUCACCCAUGUUCGUCUUAUAAAAAUAAAAAUAAAAAACAAAAAAUAAAA [Sensor V2: 48] (Eterna round: R96, puzzle: Sensor v2, turn-off variant)”, the “apparent KD of MS2 coat protein” value reads like this: (input ligand: FMN 200 uM) 19 nM; under setting [4], 29.6 nM; (input ligand: none) 20.6 nM.
As to “UUAUAAAGAGUGAGGAUAUGCUGGUCCAUGGAUCAGCAGAAGGCACAUGAGGAUCACCCAUGUAAAAUAAUAUU [Mat - Exclusion 4 - JL Mod - D41] (puzzle: Brourd's mod of Exclusion 4)”, under setting [2], the “apparent KD of MS2 coat protein” value came out at 18.7 nM.
“AGCCUGGGUUCGCCCAGGUACAUGAGGAUCACCCAUGUCAUGGGUACUUGUGUUGGUAGGCAGUGUGCUCGUCUUAU [Cac Sensor turnoff v1 sub10] (Eterna round: R97, puzzle: Sensor, turn-off variant 1)”: the “apparent KD of MS2 coat protein” value is, setting by setting: (input ligand: FMN 200 uM) 719 nM; (input ligand: none) 1050 nM.
Take “UUCCUCAUAACAUGAGGAUCACCCAUGUAUUAUUUGAUAACUGAGGAUAUACUUUUAAUGUUUAUGUAGAAGGCAGAUACAGUU [JR_ExcNG3_Sub016] (Eterna round: R96, puzzle: Exclusion NG 3)”: the “apparent KD of MS2 coat protein” value under setting [4] is 89.6 nM.
As to “CUCCGGCGUGUAGGAUAUGGAUCCGAUUAGGAUCCAGAAGGACAUGAGGAUCACCCAUGUACAUGUCGUCGGUCGUCACCGGGC [salish99_ExNG1_r04_210] (Eterna round: R96, puzzle: Exclusion NG 1)”, the “apparent KD of MS2 coat protein” value reads like this: (input ligand: FMN 200 uM) 52.7 nM; under setting [4], 22.2 nM; (input ligand: none) 32.2 nM.
“ACAUGAGGAUCACCCAUGUGACAAGAAUGGCUGAUACAGAGACAGGAUAUAGGUGCAUAUCUAACCUAGAAGGGUCAUGACUGG [Deportation 73 - Jieux - Exclusion NG 3] (Eterna round: R96, puzzle: Exclusion NG 3)”: the “apparent KD of MS2 coat protein” value under setting [4] came to 26.6 nM.
With “CGGUCCCAUGUGAGGAUAUCGGAGCGAAAAUACUGCGAGAAGGUACAUGAGGAUCACCCAUGUCUCCUAUUGCC [Entiedxebe] (puzzle: Brourd's mod of Exclusion 4)”, the “apparent KD of MS2 coat protein” value under setting [2] was found to be 15.2 nM.
Consider “AGUGUAGCAGGAUAUACAUGAGGAUCACCCAUGUUUCCGGGACCAGAGCAUCUGCCAUGUAGAAGGGCUGCCUU [Eternabot (L2) Solution 80] (Eterna round: R97, puzzle: Exclusion 3)”, for which the “apparent KD of MS2 coat protein” value is, setting by setting: (input ligand: FMN 200 uM) 275 nM; (input ligand: none) 225 nM.
The matching figures for “GCCGCGCGAGGAUAUACAUGAGGAUCACCCAUGUGAAAUUAUAGUGAGGAAAUGAAAAGUAGAAGGCGCGCGGA [Mod of Mat 19 - Jieux - Exclusion 3] (Eterna round: R97, puzzle: Exclusion 3)”: 258 nM and 37 nM.
Take “ACUAGAUGAGGAUAUGCAUGUUUUCGUGUUCUUCUAGAUUAACAUGAGGAUCACCCAUGUAGAAGGCGUCAUUU [Exclusion 2 - 27] (puzzle: Exclusion 2)”: the “apparent KD of MS2 coat protein” value under setting [2] was determined as 76.9 nM.
Turning to “GUAAUGUCCGAGGAUAUCCUUCUAAAUAUAUAUGGAGAAGGCGGUACAUGAGGAUCACCCAUGUCCAAAAUGGG [Parada] (Eterna round: R97, puzzle: Exclusion 6)”, the “apparent KD of MS2 coat protein” value is, setting by setting: (input ligand: FMN 200 uM) 229 nM; (input ligand: none) 1680 nM.
The matching figures for “ACUUACUGAGGAUAUGCGUGGAUAAACAUGAGGAUCACCCAUGUUCCUAUAAGUAUGUAUGUAGAAGGCAGAAGAA [JR_Ex5_Sub075] (Eterna round: R97, puzzle: Exclusion 5)”: 60.5 nM and 130 nM.
Regarding “UCAUGUCCAGAGGAUAUGUAGCGGGAGACCGCAACAGAAGGCUGGACAUGAGGAUCACCCAUGUGCGCCUUCCA [jl-ex3-4.26 ViennaUCT mod] (Eterna round: R97, puzzle: Exclusion 6)”, the “apparent KD of MS2 coat protein” value by setting is: (input ligand: FMN 200 uM) 21.8 nM; (input ligand: none) 17 nM.
Turning to “AAAUGCAAGUAAAGAUCCUACAUGAGGAUCACCCAUGUGCUCGUCUUAUAAAGUACUAUCACGAAAGUGAUAGUACA [Sensor 3, v1 - 21] (puzzle: Sensor v3, turn-off variant 1)”, the “apparent KD of MS2 coat protein” value is, setting by setting: under setting [1], 161 nM; under setting [2], 30.2 nM; under setting [3], 211 nM.
“UAGAUACAUGAGGAUCACCCAUGUGAGGAUAUGAGUCAGUCACGGUGACGUGGCUGACUCAGAAGGCACAAAGG [Mat - Exclusion 1 - JL Mod - D36] (Eterna round: R97, puzzle: Exclusion 1)”: the “apparent KD of MS2 coat protein” value came to 365 nM (input ligand: FMN 200 uM) and 202 nM (input ligand: none).
For the sequence “CGUAGAUUAGGAUAUUGCUCGCUGGACAUGAGGAUCACCCAUGUGCGUGUCGUGCGAAGUCAAGAAGGAGUGUGUG [Eternabot (L2) Solution 40] (Eterna round: R97, puzzle: Exclusion 5)”, the “apparent KD of MS2 coat protein” value came to 35.6 nM (input ligand: FMN 200 uM) and 18 nM (input ligand: none).

For the origin of these results see the supplement of paper PMC9170038.
